Reference: patent US20260116983A1 (University of California, published 2026)

Assays:
[1] = biological target: T1, human uPAR (recombinant protein used in ELISA and BLI) (human, UniProt Q03405 23-305, limits assumed); test: BLI (Octet HTX)
T1 construct: Whole entry named; also called biotinylated human uPAR
Experimental: (§1) Kinetic constant ranges for Octet HTX were between 1 mM to 10 pM.

[2] = biological target: T2, cynomolgus uPAR (recombinant) (cynomolgus monkey, UniProt Q9GK78 23-303, limits assumed); test: BLI (Octet HTX)
T2 construct: also called cyno uPAR; AF647-cyno uPAR
T2 sequence (looked up): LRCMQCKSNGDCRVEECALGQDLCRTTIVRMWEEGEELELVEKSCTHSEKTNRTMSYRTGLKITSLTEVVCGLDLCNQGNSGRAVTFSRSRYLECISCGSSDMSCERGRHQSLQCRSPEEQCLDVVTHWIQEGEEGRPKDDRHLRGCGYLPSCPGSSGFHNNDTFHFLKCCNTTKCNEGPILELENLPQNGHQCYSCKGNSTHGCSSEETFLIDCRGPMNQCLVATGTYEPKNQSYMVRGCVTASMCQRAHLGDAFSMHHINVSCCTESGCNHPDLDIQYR
Experimental: as §1

[3] = biological target: T3, human uPAR displayed on the surface of MDA-MB-231 cells (human, UniProt Q03405 23-305); test: cell-based or functional assay
T3 sequence (Q03405 23-305): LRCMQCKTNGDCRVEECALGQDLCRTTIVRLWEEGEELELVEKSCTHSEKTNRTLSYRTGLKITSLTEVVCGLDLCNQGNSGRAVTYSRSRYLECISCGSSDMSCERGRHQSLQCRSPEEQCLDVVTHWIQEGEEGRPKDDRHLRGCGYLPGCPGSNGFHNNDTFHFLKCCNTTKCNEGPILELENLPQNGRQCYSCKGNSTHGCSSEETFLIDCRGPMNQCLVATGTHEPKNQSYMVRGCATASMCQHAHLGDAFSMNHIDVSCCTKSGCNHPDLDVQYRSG

[4] = biological target: T2, cynomolgus uPAR (recombinant); test: ELISA, plate-coated cyno uPAR
Experimental: (§2) To ensure the cross-reactivity of the 12 lead candidates was maintained with the Herceptin constant region, their binding to human and cyno uPAR was evaluated by ELISA (FIG. 3A).
(§3) Nunc MaxiSorp™ flat-bottom 96-well plates were coated with human or cyno uPAR (3.19 μg/mL) at 4° C. overnight, and plates were washed with wash buffer and blocked with 5% non-fat dry milk. A standard log serial dilution of each antibody candidate was added to the uPAR-coated plates and incubated at 4° C. overnight. Plates were washed three times and incubated with 50 μL of HRP-conjugated goat anti-human (H+L) antibody (Biorad). After a two-hr incubation, plates were washed, and 100 μL of 1-Step™ Turbo TMB-ELISA Substrate Solution (Thermo Scientific) was added to each well. The reaction was quenched with 2M H₂SO₄ for 5 min at room temperature, and the optical density of each well was measured at 450 nm using a SpectraMax190 microplate reader.

[5] = biological target: T1, human uPAR (recombinant protein used in …); test: ELISA, plate-coated human uPAR
Experimental: as §2, §3

[6] = biological target: T3, human uPAR displayed on the surface of …; test: flow cytometry on MDA-MB-231 cells
[7] = biological target: T3, human uPAR displayed on the surface of …; test: flow cytometry (FACS) on MDA-MB-231 cells
Excerpt: Antibodies generated by immunizing animals with suPAR, which lacks the cell surface anchoring motif, can target protein regions that are not accessible for membrane-bound uPAR. […] Thus, FACS was applied to evaluate the cell-surface uPAR recognition by each antibody candidate under different concentrations of MDA-MB-231 cells, a triple-negative breast cancer cell line with high uPAR expression (FIG. 2).
MDA-MB-231 cells were harvested with TrypleE and resuspended in FACS buffer (PBS+1% BSA) to 2×10⁶ cells/mL before being aliquoted to a 96-well plate (100 μL, 2×10⁵ cells/well). Cells were pelleted by centrifuging the microplate for 5 min at 400 RCF and resuspended in PBS containing serially diluted antibodies to a maximum concentration of 600 nM, followed by a 50 min incubation at 4° C. Cells were then washed three times with PBS and incubated with an AlexaFluor488-conjugated goat anti-human IgG for 50 min at 4° C. in the dark. Finally, cells were washed twice with FACS buffer and resuspended in 80 μL for FACS analysis in a Bio-rad S3e Cell Sorter.

[8] = biological target: T1, human uPAR (recombinant protein used in …); test: BLI (Octet HTX); repeated row of the table
Experimental: as §1

[9] = biological target: T2, cynomolgus uPAR (recombinant); test: BLI (Octet HTX); repeated row of the table
Experimental: as §1

[10] = biological target: T3, human uPAR displayed on the surface of …; test: flow cytometry on MDA-MB-231 cells; repeated row of the table

T1 sequence (Q03405 23-305 limits assumed): as the sequence (Q03405 23-305) above

Kd [1]: 6.37 nM
Kd [2]: 8.48 nM
ADCC NK-92 EC50 [3]: 5.59 nM
ADCC NK-92 Max % [3]: 27.2%
ADCC PBMCs EC50 [3]: 0.35 nM
ADCC PBMCs Max % [3]: 52%
Adhesion blocking EC50 [3]: 940 nM
EC50 [4]: 0.18 nM
EC50 [5]: 0.52 nM
EC50 [6]: 0.545 µg/mL
Cellular recognition Max % [7]: 1940%
EC50 [7]: 2.07 nM
Kd [8]: 6.37 nM
Kd [9]: 8.48 nM
EC50 [10]: 0.545 µg/mL
B1: Antibody 11857 (antibody, human IgG1, V domains shown)
VH: EVQLRQSGPELVKPGASVKISCKASGYTFTDYYMNWVKQSHEKSLEWIGNINPNNGGTDYNQKFKGKATLTVDKSSSTAYMELRSLTSEDSAVYYCARSYGSRFPYWGLGTLVTVSA
VL: DIQMTQTTSSLSASLGDRVTISCRASQDITNYLSWYQQKPDGTVKLLIFYTAVLQSGFPLRFSGSGSGADYSLTISNLEQEDFATYFCQQGHTLPWTFGGGTKLEIK
ADC Cytotoxicity EC50 [3]: 0.76 nM
ADC Cytotoxicity Max % [3]: 35.2%
